Measured values reported in PMC10397247.

Legend:
4H1854-AA = molecular target: T1, 4H1854-AA; assay: two-hybrid library CCmax; details: mean of both orientations;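 also: natural log of median RNA to DNA barcode read ratio; higher means stronger binding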
T1 chain: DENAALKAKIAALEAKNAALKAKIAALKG

4H3939-AA = molecular target: T2, 4H3939-AA; assay: two-hybrid library CCmax; details: mean of both orientations;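 also: natural log of median RNA to DNA barcode read ratio; higher means stronger binding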
T2 chain: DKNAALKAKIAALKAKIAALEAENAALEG

4H1348-AA = molecular target: T3, 4H1348-AA; assay: two-hybrid library CCmax; details: mean of both orientations;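 also: natural log of median RNA to DNA barcode read ratio; higher means stronger binding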
T3 chain: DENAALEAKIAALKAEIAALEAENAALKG

4H3628-AA = molecular target: T4, 4H3628-AA; assay: two-hybrid library CCmax; details: mean of both orientations;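 also: natural log of median RNA to DNA barcode read ratio; higher means stronger binding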
T4 chain: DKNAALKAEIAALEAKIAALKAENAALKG

4H3591-AA = molecular target: T5, 4H3591-AA; assay: two-hybrid library CCmax; details: mean of both orientations;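 also: natural log of median RNA to DNA barcode read ratio; higher means stronger binding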
T5 chain: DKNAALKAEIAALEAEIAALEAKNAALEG

4H497-AA = molecular target: T6, 4H497-AA; assay: two-hybrid library CCmax; details: mean of both orientations;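 also: natural log of median RNA to DNA barcode read ratio; higher means stronger binding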
T6 chain: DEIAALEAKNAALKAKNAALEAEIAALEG

4H1809-AA = molecular target: T7, 4H1809-AA; assay: two-hybrid library CCmax; details: mean of both orientations
T7 chain: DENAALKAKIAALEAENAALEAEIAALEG

4H3709-AA = molecular target: T8, 4H3709-AA; assay: two-hybrid library CCmax; details: mean of both orientations
T8 chain: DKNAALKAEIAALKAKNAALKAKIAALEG

4H3920-AA = molecular target: T9, 4H3920-AA; assay: two-hybrid library CCmax; details: mean of both orientations
T9 chain: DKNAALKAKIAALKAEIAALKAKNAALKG

4H146-AA = molecular target: T10, 4H146-AA; assay: two-hybrid library CCmax; details: mean of both orientations
T10 chain: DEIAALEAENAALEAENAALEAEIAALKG

4H478-AA = molecular target: T11, 4H478-AA; assay: two-hybrid library CCmax; details: mean of both orientations
T11 chain: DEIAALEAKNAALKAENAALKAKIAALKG

4H2283-AA = molecular target: T12, 4H2283-AA; assay: two-hybrid library CCmax; details: mean of both orientations
T12 chain: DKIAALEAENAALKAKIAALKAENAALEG

4H3066-AA = molecular target: T13, 4H3066-AA; assay: two-hybrid library CCmax; details: mean of both orientations
T13 chain: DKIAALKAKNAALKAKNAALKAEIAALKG

4H428-AA = molecular target: T14, 4H428-AA; assay: two-hybrid library CCmax; details: mean of both orientations
T14 chain: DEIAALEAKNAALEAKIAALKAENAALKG

4H189-AA = molecular target: T15, 4H189-AA; assay: two-hybrid library CCmax; details: mean of both orientations
T15 chain: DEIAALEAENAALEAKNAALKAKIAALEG

4H2991-AA = molecular target: T16, 4H2991-AA; assay: two-hybrid library CCmax; details: mean of both orientations
T16 chain: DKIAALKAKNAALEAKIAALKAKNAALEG

4H2713-AA = molecular target: T17, 4H2713-AA; assay: two-hybrid library CCmax; details: mean of both orientations
T17 chain: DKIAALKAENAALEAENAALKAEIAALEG

4H656-AA = molecular target: T18, 4H656-AA; assay: two-hybrid library CCmax; details: mean of both orientations
T18 chain: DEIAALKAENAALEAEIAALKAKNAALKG

4H1391-AA = molecular target: T19, 4H1391-AA; assay: two-hybrid library CCmax
T19 chain: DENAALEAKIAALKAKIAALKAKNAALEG

4H2742-AA = molecular target: T20, 4H2742-AA; assay: two-hybrid library CCmax; details: mean of both orientations
T20 chain: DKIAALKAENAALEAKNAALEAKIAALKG

4H2948-AA = molecular target: T21, 4H2948-AA; assay: two-hybrid library CCmax; details: mean of both orientations
T21 chain: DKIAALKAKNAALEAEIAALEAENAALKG

4H3666-AA = molecular target: T22, 4H3666-AA; assay: two-hybrid library CCmax; details: mean of both orientations
T22 chain: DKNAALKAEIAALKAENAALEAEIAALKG

4H3102-AA = molecular target: T23, 4H3102-AA; assay: two-hybrid library CCmax; details: mean of both orientations
T23 chain: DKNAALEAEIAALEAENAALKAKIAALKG

4H3417-AA = molecular target: T24, 4H3417-AA; assay: two-hybrid library CCmax; details: mean of both orientations
T24 chain: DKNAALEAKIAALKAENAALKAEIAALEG

4H971-AA = molecular target: T25, 4H971-AA; assay: two-hybrid library CCmax; details: mean of both orientations
T25 chain: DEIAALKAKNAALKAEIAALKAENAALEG

4H675-AA = molecular target: T26, 4H675-AA; assay: two-hybrid library CCmax; details: mean of both orientations
T26 chain: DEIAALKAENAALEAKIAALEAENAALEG

4H2248-AA = molecular target: T27, 4H2248-AA; assay: two-hybrid library CCmax; details: mean of both orientations
T27 chain: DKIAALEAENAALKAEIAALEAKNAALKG

4H3446-AA = molecular target: T28, 4H3446-AA; assay: two-hybrid library CCmax
T28 chain: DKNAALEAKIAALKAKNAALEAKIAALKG

4H1146-AA = molecular target: T29, 4H1146-AA; assay: two-hybrid library CCmax
T29 chain: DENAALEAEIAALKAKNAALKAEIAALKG

4H391-AA = molecular target: T30, 4H391-AA; assay: two-hybrid library CCmax; details: mean of both orientations
T30 chain: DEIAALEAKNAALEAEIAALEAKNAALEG

4H3121-AA = molecular target: T31, 4H3121-AA; assay: two-hybrid library CCmax; details: mean of both orientations
T31 chain: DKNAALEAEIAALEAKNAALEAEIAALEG

4H3029-AA = molecular target: T32, 4H3029-AA; assay: two-hybrid library CCmax; details: mean of both orientations
T32 chain: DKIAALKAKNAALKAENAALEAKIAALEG

P8A-bP = molecular target: T33, P8A-bP; assay: two-hybrid library CCNG1
T33 chain: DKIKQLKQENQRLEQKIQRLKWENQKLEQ

P9A-bP = molecular target: T34, P9A-bP; assay: two-hybrid library CCNG1
T34 chain: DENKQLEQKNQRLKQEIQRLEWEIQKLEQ

P7A-bP = molecular target: T35, P7A-bP; assay: two-hybrid library CCNG1
T35 chain: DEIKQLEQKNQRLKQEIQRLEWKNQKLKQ

P3A-bP = molecular target: T36, P3A-bP; assay: two-hybrid library CCNG1
T36 chain: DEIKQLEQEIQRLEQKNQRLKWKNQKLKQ

P4A-bP = molecular target: T37, P4A-bP; assay: two-hybrid library CCNG1
T37 chain: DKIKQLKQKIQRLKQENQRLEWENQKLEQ

P6A-bP = molecular target: T38, P6A-bP; assay: two-hybrid library CCNG1
T38 chain: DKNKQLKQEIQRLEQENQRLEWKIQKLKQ

P2A-bP = molecular target: T39, P2A-bP; assay: two-hybrid library CCNG1
T39 chain: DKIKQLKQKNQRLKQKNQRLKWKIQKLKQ

P5A-bP = molecular target: T40, P5A-bP; assay: two-hybrid library CCNG1
T40 chain: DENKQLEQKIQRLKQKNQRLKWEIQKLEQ

## DENAALEAEIAALKAKNAALKAEIAALKG [4H1146-AA]
4H1854-AA
  interaction score: -0.715
4H3939-AA
  interaction score: -1.69
4H1348-AA
  interaction score: -1.15
4H3628-AA
  interaction score: -1.65
4H3591-AA
  interaction score: -0.991
4H497-AA
  interaction score: -1.98
4H1809-AA
  interaction score: 2.05
4H3709-AA
  interaction score: -0.436
4H3920-AA
  interaction score: -1.58
4H146-AA
  interaction score: 0.0699
4H478-AA
  interaction score: -1.22
4H2283-AA
  interaction score: -0.542
4H3066-AA
  interaction score: -1.53
4H428-AA
  interaction score: -0.861
4H189-AA
  interaction score: -1.57
4H2991-AA
  interaction score: -0.0174
4H2713-AA
  interaction score: -0.725
4H656-AA
  interaction score: 1.71
4H1391-AA
  interaction score: -1.56
4H2742-AA
  interaction score: -1.39
4H2948-AA
  interaction score: -0.764
4H3666-AA
  interaction score: 2.01
4H3102-AA
  interaction score: 0.627
4H3417-AA
  interaction score: 0.618
4H971-AA
  interaction score: -0.562
4H675-AA
  interaction score: 0.0108
4H2248-AA
  interaction score: -0.598
4H3446-AA
  interaction score: 0.452
4H1146-AA
  interaction score: -0.0838
4H391-AA
  interaction score: -1.21
4H3121-AA
  interaction score: -0.198
4H3029-AA
  interaction score: -1.14

## DKIKQLKQKNQRLKQKNQRLKWKIQKLKQ [P2A-bP]
P8A-bP
  interaction score: -0.672
P9A-bP
  interaction score: -0.913
P7A-bP
  interaction score: -2.54
P3A-bP
  interaction score: -1.2
P4A-bP
  interaction score: -1.81
P6A-bP
  interaction score: -0.533
P2A-bP
  interaction score: 0.0236
P5A-bP
  interaction score: -1.71
